Where two headings read alike, the source gives them in different places.
Experiments:
[1] = target: T1, human IL-21 receptor (IL-21R) on cells (human, UniProt Q9HBE5 20-538; P31785 23-369); test: cell-based or functional assay
[2] = target: T1, human IL-21 receptor (IL-21R) on cells; test: cell-based or functional assay; remark: listed apart in the source

T1 sequence (Q9HBE5 20-538, chain 1 of 2): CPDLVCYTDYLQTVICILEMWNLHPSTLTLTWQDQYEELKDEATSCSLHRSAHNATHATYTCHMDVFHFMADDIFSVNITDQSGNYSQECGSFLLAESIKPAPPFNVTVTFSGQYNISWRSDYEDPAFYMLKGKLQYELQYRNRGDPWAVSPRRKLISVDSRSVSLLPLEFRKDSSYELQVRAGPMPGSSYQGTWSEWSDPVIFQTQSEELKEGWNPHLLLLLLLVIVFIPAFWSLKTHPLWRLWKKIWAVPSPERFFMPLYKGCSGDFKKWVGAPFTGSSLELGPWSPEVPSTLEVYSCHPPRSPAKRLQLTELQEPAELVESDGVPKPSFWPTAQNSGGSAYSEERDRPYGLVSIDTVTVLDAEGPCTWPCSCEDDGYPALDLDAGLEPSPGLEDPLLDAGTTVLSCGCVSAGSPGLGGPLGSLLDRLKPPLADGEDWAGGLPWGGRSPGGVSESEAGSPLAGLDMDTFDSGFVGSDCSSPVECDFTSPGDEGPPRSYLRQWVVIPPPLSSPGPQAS
T1 sequence (P31785 23-369, chain 2 of 2): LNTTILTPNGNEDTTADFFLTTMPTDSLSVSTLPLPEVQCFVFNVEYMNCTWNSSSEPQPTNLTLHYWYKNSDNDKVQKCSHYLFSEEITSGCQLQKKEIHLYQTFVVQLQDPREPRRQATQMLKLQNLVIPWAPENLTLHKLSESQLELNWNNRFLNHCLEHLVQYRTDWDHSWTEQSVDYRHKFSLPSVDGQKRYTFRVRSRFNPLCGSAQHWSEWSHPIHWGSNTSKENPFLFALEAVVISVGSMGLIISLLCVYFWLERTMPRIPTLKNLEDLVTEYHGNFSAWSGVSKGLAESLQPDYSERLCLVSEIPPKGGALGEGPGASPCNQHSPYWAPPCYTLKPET

B1: IFM656 (bispecific antibody, human IgG1, kappa, lambda, L234A L235A)
heavy 1: EVQLLESGGGLVQPGGSLRLSCAASGFTFSINAMTWVRQAPGKGLEWVSTISGSGFSTYYADSLKGRFTISRDNSKNTLYLQMNSLRAEDTAVYYCAKEVYGDYWGQGTLVTVSSASTKGPSVFPLAPSSKSTSGGTAALGCLVKDYFPEPVTVSWNSGALTSGVHTFPAVLQSSGLYSLSSVVTVPSSSLGTQTYICNVNHKPSNTKVDKRVEPKSCDKTHTCPPCPAPEAAGGPSVFLFPPKPKDTLMISRTPEVTCVVVDVSHEDPEVKFNWYVDGVEVHNAKTKPREEQYNSTYRVVSVLTVLHQDWLNGKEYKCKVSNKALAAPIEKTISKAKGQPREPQVCTLPPSREEMTKNQVSLSCAVKGFYPSDIAVEWESNGQPENNYKTTPPVLDSDGSFFLVSKLTVDKSRWQQGNVFSCSVMHEALHNHYTQKSLSLSPGK
light 1: not shown
heavy 2: not shown
light 2: DIQLTQSPSSVSASVGDRVTITCRASQGISSWLAWYQHKPGKAPKLLIYVASSLQSGVPSRFSGSGSGTDFTLTISSLQPEDFATYYCQQASSFPLTFGGGTKVEIKRTVAAPSVFIFPPSDEQLKSGTASVVCLLNNFYPREAKVQWKVDNALQSGNSQESVTEQDSKDSTYSLSSTLTLSKADYEKHKVYACEVTHQGLSSPVTKSFNRGEC
- EC50B, pSTAT3+ Jurkat PD-1 cells, PD-1 blocked [1]: 15.9 nM
- EC50NB, pSTAT3+ Jurkat PD-1 cells [1]: 0.21 nM

B2: DHJ369 (bispecific antibody, human IgG1, kappa, lambda, L234A L235A)
heavy 1: EVQLLESGGGLVQPGGSLRLSCAASGFTFSINAMTWVRQAPGKGLEWVSTISGSGFSTYYADSLKGRFTISRDNSKNTLYLQMNSLRAEDTAVYYCAKEVYGDYWGQGTLVTVSSASTKGPSVFPLAPSSKSTSGGTAALGCLVKDYFPEPVTVSWNSGALTSGVHTFPAVLQSSGLYSLSSVVTVPSSSLGTQTYICNVNHKPSNTKVDKRVEPKSCDKTHTCPPCPAPEAAGGPSVFLFPPKPKDTLMISRTPEVTCVVVDVSHEDPEVKFNWYVDGVEVHNAKTKPREEQYNSTYRVVSVLTVLHQDWLNGKEYKCKVSNKALAAPIEKTISKAKGQPREPQVCTLPPSREEMTKNQVSLSCAVKGFYPSDIAVEWESNGQPENNYKTTPPVLDSDGSFFLVSKLTVDKSRWQQGNVFSCSVMHEALHNHYTQKSLSLSPGK
light 1: not shown
heavy 2: not shown
light 2: DIQMTQSPSSVSASVGDRVTITCRASQGISSWLAWYQHKPGKAPKLLIYVASSLQSGVPSRFSGSGSGTDFTLTISSLQPEDFATYYCQQANSFPLTFGGGTKVEIKRTVAAPSVFIFPPSDEQLKSGTASVVCLLNNFYPREAKVQWKVDNALQSGNSQESVTEQDSKDSTYSLSSTLTLSKADYEKHKVYACEVTHQGLSSPVTKSFNRGEC
- EC50B, pSTAT3+ Jurkat PD-1 cells, PD-1 blocked [1]: 2.56 nM
- EC50NB, pSTAT3+ Jurkat PD-1 cells [1]: 0.24 nM

B3: JKJ112 (bispecific antibody, human IgG1, kappa, lambda, L234A L235A)
heavy 1: EVQLLESGGGLVQPGGSLRLSCAASGFTFSINAMTWVRQAPGKGLEWVSTISGSGFSTYYADSLKGRFTISRDNSKNTLYLQMNSLRAEDTAVYYCAKEVYGDYWGQGTLVTVSSASTKGPSVFPLAPSSKSTSGGTAALGCLVKDYFPEPVTVSWNSGALTSGVHTFPAVLQSSGLYSLSSVVTVPSSSLGTQTYICNVNHKPSNTKVDKRVEPKSCDKTHTCPPCPAPEAAGGPSVFLFPPKPKDTLMISRTPEVTCVVVDVSHEDPEVKFNWYVDGVEVHNAKTKPREEQYNSTYRVVSVLTVLHQDWLNGKEYKCKVSNKALAAPIEKTISKAKGQPREPQVCTLPPSREEMTKNQVSLSCAVKGFYPSDIAVEWESNGQPENNYKTTPPVLDSDGSFFLVSKLTVDKSRWQQGNVFSCSVMHEALHNHYTQKSLSLSPGK
light 1: not shown
heavy 2: not shown
light 2: DIQMTQSPSSVSASVGDRVTITCRASQGISSWLAWYQHKPGKAPKLLIYVASSLQSGVPSRFSGSGSGTDFTLTISSLQPEDFATYYCQQANSFPLTFGGGTKVEIKRTVAAPSVFIFPPSDEQLKSGTASVVCLLNNFYPREAKVQWKVDNALQSGNSQESVTEQDSKDSTYSLSSTLTLSKADYEKHKVYACEVTHQGLSSPVTKSFNRGEC
- EC50B, pSTAT3+ Jurkat PD-1 cells, PD-1 blocked [1]: 17.2 nM
- EC50NB, pSTAT3+ Jurkat PD-1 cells [1]: 0.52 nM

B4: ZBA121 (bispecific antibody, human IgG1, kappa, lambda, L234A L235A)
heavy 1: EVQLLESGGGLVQPGGSLRLSCAASGFTFSINAMTWVRQAPGKGLEWVSTISGSGFSTYYADSLKGRFTISRDNSKNTLYLQMNSLRAEDTAVYYCAKEVYGDYWGQGTLVTVSSASTKGPSVFPLAPSSKSTSGGTAALGCLVKDYFPEPVTVSWNSGALTSGVHTFPAVLQSSGLYSLSSVVTVPSSSLGTQTYICNVNHKPSNTKVDKRVEPKSCDKTHTCPPCPAPEAAGGPSVFLFPPKPKDTLMISRTPEVTCVVVDVSHEDPEVKFNWYVDGVEVHNAKTKPREEQYNSTYRVVSVLTVLHQDWLNGKEYKCKVSNKALAAPIEKTISKAKGQPREPQVCTLPPSREEMTKNQVSLSCAVKGFYPSDIAVEWESNGQPENNYKTTPPVLDSDGSFFLVSKLTVDKSRWQQGNVFSCSVMHEALHNHYTQKSLSLSPGK
light 1: not shown
heavy 2: not shown
light 2: DIQMTQSPSSVSASVGDRVTITCRASQGISSWLAWYQHKPGKAPKLLIYVASSLQSGVPSRFSGSGSGTDFTLTISSLQPEDFATYYCQQANSFPLTFGGGTKVEIKRTVAAPSVFIFPPSDEQLKSGTASVVCLLNNFYPREAKVQWKVDNALQSGNSQESVTEQDSKDSTYSLSSTLTLSKADYEKHKVYACEVTHQGLSSPVTKSFNRGEC
- EC50B, pSTAT3+ Jurkat PD-1 cells, PD-1 blocked [1]: 103 nM
- EC50NB, pSTAT3+ Jurkat PD-1 cells [1]: 0.86 nM

B5: EDV817 (bispecific antibody, human IgG1, kappa, lambda, L234A L235A)
heavy 1: EVQLLESGGGLVQPGGSLRLSCAASGFTFSINAMTWVRQAPGKGLEWVSTISGSGFSTYYADSLKGRFTISRDNSKNTLYLQMNSLRAEDTAVYYCAKEVYGDYWGQGTLVTVSSASTKGPSVFPLAPSSKSTSGGTAALGCLVKDYFPEPVTVSWNSGALTSGVHTFPAVLQSSGLYSLSSVVTVPSSSLGTQTYICNVNHKPSNTKVDKRVEPKSCDKTHTCPPCPAPEAAGGPSVFLFPPKPKDTLMISRTPEVTCVVVDVSHEDPEVKFNWYVDGVEVHNAKTKPREEQYNSTYRVVSVLTVLHQDWLNGKEYKCKVSNKALAAPIEKTISKAKGQPREPQVCTLPPSREEMTKNQVSLSCAVKGFYPSDIAVEWESNGQPENNYKTTPPVLDSDGSFFLVSKLTVDKSRWQQGNVFSCSVMHEALHNHYTQKSLSLSPGK
light 1: not shown
heavy 2: QVQLQESGPGLVKPSETLSLTCTVSGGSISSDYWGWIRQPPGKGLEWIGYISYRGSTNYNPSLKSRVTISVDTSRNQFSLKLSSVTAADTAVYYCARSAGVTDFDAWGQGTLVTVSSASTKGPSVFPLAPSSKSTSGGTAALGCLVKDYFPEPVTVSWNSGALTSGVHTFPAVLQSSGLYSLSSVVTVPSSSLGTQTYICNVNHKPSNTKVDKRVEPKSCDKTHTCPPCPAPEAAGGPSVFLFPPKPKDTLMISRTPEVTCVVVDVSHEDPEVKFNWYVDGVEVHNAKTKPREEQYNSTYRVVSVLTVLHQDWLNGKEYKCKVSNKALAAPIEKTISKAKGQPREPQVYTLPPCREEMTKNQVSLWCLVKGFYPSDIAVEWESNGQPENNYKTTPPVLDSDGSFFLYSKLTVDKSRWQQGNVFSCSVMHEALHNHYTQKSLSLSPGK
light 2: not shown
- EC50B, pSTAT3+ Jurkat PD-1 cells, PD-1 blocked [2]: 0.13 nM
- EC50NB, pSTAT3+ Jurkat PD-1 cells [2]: 0.0969 nM

B6: SUR250 (bispecific antibody, human IgG1, kappa, lambda, L234A L235A)
heavy 1: EVQLLESGGGLVQPGGSLRLSCAASGFTFSINAMTWVRQAPGKGLEWVSTISGSGFSTYYADSLKGRFTISRDNSKNTLYLQMNSLRAEDTAVYYCAKEVYGDYWGQGTLVTVSSASTKGPSVFPLAPSSKSTSGGTAALGCLVKDYFPEPVTVSWNSGALTSGVHTFPAVLQSSGLYSLSSVVTVPSSSLGTQTYICNVNHKPSNTKVDKRVEPKSCDKTHTCPPCPAPEAAGGPSVFLFPPKPKDTLMISRTPEVTCVVVDVSHEDPEVKFNWYVDGVEVHNAKTKPREEQYNSTYRVVSVLTVLHQDWLNGKEYKCKVSNKALAAPIEKTISKAKGQPREPQVCTLPPSREEMTKNQVSLSCAVKGFYPSDIAVEWESNGQPENNYKTTPPVLDSDGSFFLVSKLTVDKSRWQQGNVFSCSVMHEALHNHYTQKSLSLSPGK
light 1: not shown
heavy 2: not shown
light 2: DIQLTQSPSSVSASVGDRVTITCRASQGISSWLAWYQHKPGKAPKLLIYVASSLQSGVPSRFSGSGSGTDFTLTISSLQPEDFATYYCQQASSFPLTFGGGTKVEIKRTVAAPSVFIFPPSDEQLKSGTASVVCLLNNFYPREAKVQWKVDNALQSGNSQESVTEQDSKDSTYSLSSTLTLSKADYEKHKVYACEVTHQGLSSPVTKSFNRGEC
- EC50B, pSTAT3+ Jurkat PD-1 cells, PD-1 blocked [1]: 5.36 nM
- EC50NB, pSTAT3+ Jurkat PD-1 cells [1]: 0.08 nM

— EP4671273A1 (Anaveon AG, dated 2025)
